Laboratory results published in patent US20220332804A1 (CSL INNOVATION, published 2022).

Columns and labels:
Assay in all cases: SPR, KD relative to WT C2;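 also: biacore SPR at 37 °C, anti-C2 mAbs captured via immobilised goat anti-human IgG, C2 alanine or serine surface mutants as analytes, 1:1 model fitted, double-referenced sensograms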
human C2 E532A = biological target: T1, human C2 E532A (human, UniProt P06681 21-752)
T1 sequence: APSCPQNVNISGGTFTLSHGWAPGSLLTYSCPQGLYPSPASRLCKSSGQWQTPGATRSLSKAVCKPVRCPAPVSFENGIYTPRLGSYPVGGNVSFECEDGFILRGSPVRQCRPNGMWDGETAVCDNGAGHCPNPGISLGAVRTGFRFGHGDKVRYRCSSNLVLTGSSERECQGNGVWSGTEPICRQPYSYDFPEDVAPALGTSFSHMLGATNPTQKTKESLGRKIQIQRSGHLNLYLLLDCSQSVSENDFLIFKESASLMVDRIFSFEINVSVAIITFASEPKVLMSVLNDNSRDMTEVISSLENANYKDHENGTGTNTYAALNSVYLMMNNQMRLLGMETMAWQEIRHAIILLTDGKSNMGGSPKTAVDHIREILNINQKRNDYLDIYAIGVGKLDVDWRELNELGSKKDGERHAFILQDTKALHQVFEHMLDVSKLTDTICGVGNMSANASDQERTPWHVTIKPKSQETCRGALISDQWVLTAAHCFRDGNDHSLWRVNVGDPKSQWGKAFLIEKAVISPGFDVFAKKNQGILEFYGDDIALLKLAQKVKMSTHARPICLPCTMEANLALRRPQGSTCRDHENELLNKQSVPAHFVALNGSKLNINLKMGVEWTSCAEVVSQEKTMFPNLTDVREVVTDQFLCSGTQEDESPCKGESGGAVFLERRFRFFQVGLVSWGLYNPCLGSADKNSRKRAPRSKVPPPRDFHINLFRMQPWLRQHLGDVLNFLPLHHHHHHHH

human C2 P704A = biological target: T2, human C2 P704A (human, UniProt P06681 21-752)
T2 sequence: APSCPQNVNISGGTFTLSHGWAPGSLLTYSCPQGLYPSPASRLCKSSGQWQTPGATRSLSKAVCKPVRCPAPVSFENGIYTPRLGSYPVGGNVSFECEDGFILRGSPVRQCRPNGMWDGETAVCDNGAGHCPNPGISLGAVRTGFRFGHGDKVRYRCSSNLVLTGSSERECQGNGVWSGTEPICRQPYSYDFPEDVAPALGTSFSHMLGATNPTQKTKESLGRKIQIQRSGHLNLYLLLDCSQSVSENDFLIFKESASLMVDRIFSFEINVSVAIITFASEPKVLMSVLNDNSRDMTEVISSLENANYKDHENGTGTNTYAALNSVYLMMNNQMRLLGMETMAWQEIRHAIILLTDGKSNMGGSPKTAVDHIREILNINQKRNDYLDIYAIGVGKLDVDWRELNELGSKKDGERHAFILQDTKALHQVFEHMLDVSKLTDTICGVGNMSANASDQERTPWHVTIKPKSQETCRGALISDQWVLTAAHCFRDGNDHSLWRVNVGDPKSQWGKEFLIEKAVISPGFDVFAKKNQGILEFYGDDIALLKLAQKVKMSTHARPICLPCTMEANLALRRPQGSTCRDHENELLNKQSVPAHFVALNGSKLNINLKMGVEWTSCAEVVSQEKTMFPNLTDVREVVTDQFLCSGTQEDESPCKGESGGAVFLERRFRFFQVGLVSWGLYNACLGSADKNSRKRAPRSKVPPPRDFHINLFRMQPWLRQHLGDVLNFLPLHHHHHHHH

human C2 Q447A = biological target: T3, human C2 Q447A (human, UniProt P06681 21-752)
T3 sequence: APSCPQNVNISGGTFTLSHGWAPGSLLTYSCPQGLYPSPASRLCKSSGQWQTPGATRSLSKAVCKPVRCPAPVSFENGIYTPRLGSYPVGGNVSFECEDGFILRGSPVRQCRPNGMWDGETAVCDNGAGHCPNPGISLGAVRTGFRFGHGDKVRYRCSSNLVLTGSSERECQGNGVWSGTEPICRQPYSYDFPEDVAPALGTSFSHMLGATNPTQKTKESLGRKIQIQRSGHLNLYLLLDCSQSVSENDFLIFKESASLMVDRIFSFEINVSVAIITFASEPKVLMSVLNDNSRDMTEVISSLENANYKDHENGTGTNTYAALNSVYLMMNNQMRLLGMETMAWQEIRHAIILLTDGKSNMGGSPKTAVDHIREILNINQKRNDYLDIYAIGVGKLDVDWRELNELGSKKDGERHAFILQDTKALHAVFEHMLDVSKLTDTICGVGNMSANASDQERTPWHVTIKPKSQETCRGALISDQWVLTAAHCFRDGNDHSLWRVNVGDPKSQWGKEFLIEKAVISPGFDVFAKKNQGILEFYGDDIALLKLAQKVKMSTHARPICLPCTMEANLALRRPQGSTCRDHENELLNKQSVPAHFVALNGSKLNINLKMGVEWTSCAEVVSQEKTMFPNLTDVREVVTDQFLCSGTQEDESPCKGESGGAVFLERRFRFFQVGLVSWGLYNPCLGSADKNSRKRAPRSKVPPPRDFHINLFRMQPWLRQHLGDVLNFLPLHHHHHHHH

human C2 N424A = biological target: T4, human C2 N424A (human, UniProt P06681 21-752)
T4 sequence: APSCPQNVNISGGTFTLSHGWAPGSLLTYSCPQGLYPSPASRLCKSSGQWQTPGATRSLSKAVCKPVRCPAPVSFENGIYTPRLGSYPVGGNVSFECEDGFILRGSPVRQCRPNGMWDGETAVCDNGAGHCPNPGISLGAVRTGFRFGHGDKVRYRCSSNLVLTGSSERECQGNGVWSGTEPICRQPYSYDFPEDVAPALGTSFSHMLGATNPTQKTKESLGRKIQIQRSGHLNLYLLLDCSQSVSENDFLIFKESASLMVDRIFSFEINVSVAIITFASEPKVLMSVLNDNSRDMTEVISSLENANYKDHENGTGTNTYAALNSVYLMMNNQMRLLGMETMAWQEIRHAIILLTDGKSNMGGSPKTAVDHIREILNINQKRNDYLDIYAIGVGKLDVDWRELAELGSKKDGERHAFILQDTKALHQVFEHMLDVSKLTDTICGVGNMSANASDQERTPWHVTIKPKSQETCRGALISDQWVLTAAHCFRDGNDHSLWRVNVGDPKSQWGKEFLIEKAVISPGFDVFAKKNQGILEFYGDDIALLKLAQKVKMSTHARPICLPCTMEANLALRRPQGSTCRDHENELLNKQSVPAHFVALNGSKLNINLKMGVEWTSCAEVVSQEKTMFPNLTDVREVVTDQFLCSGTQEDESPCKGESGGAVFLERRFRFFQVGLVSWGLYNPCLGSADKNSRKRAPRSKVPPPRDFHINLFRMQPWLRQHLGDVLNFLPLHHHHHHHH

B1: RF16-226 (antibody, human IgG4 S228P, lambda)
heavy: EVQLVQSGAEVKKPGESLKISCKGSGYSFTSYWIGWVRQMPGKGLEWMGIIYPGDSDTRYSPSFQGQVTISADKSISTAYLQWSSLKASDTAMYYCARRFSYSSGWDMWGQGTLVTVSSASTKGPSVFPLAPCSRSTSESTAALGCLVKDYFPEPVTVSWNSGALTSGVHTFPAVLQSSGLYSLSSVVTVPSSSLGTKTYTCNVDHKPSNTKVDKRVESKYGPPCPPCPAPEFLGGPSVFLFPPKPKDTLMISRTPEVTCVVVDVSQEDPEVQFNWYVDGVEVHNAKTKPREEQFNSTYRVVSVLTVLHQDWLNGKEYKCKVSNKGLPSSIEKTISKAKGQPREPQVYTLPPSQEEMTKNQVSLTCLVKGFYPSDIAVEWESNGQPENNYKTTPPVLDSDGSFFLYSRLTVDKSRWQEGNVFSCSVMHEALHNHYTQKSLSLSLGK
light: SYELTQPPSVSVSPGQTARITCSGDALTSKYVAWYQQKSGLAPLLVIYEDTRRPSGIPAKFSGSSSGSVATLTISGAHGDDEADYYCYSTDASGHQRVFGGGTKLTVLSQPKAAPSVTLFPPSSEELQANKATLVCLISDFYPGAVTVAWKADGSPVKAGVETTKPSKQSNNKYAASSYLSLTPEQWKSHRSYSCQVTHEGSTVEKTVAPTECS
notes: pH-dependent anti-C2 antibody from a phage display library; also called WT
**Q.** How did the Fold diff (human C2 E532A) turn out when B1 was run?
**A.** 2 fold

**Q.** What about the Fold diff (human C2 P704A) of the same binder?
**A.** 12 fold

**Q.** And the Fold diff (human C2 Q447A)?
**A.** 1 fold

**Q.** And the Fold diff (human C2 N424A)?
**A.** 0 fold
